According to patent US20220064329A1 (Novo Nordisk, published 2022):
Where a chain is given by its changes, count along the chain named. Numbers in names are those of the source.

B1: VH SEQ ID NO 514 / VL SEQ ID NO 358 (antibody, IgG4, V domains shown)
VH: QVQLQESGPGLVEPSDTLSLTCAVSGYSITSDSAWSWIRQPPGKKLEWIGYIQYSGSTNYNPSLKSRVTMSRDTSKNQFSLKLSSVTALDTAVYYCARSVNYYGNSFAVGYWGQGTLVTVSS
VL: EIVLTQSPATLSLSPGERATLSCRASQGISDYLHWYQQKPGQAPRLLIKYTSQPATGIPARFSGSGSGTDFTLTISSLEPEDFAVYYCQNGHSFPLTFGQGTKLEIK
notes: humanized 11F2; IgG4 S228P/kappa
B2: VH SEQ ID NO 522 / VL SEQ ID NO 502 (antibody, IgG4, V domains shown)
VH: B1 VH with D16Q, A23T, T30S, K45G, M70I, L89A, Y111P
VL: B1 VL with I29V
notes: as for B1
B3: VH SEQ ID NO 522 / VL SEQ ID NO 342 (antibody, IgG4, V domains shown)
VH: B1 VH with D16Q, A23T, T30S, K45G, M70I, L89A, Y111P
VL: B1 VL with T69R, Q100A, I106L
notes: as for B1
B4: VH SEQ ID NO 522 / VL SEQ ID NO 454 (antibody, IgG4, V domains shown)
VH: B1 VH with D16Q, A23T, T30S, K45G, M70I, L89A, Y111P
VL: B1 VL with I29V, Q42E, T51A
notes: as for B1
B5: VH SEQ ID NO 514 / VL SEQ ID NO 390 (antibody, IgG4, V domains shown)
VH: B1 VH
VL: B1 VL with I29V, H34A, Q42E, T51A
notes: as for B1
B6: VH SEQ ID NO 522 / VL SEQ ID NO 430 (antibody, IgG4, V domains shown)
VH: B1 VH with D16Q, A23T, T30S, K45G, M70I, L89A, Y111P
VL: B1 VL with I29V, H34A, T51A, A84G
notes: as for B1
B7: VH SEQ ID NO 514 / VL SEQ ID NO 438 (antibody, IgG4, V domains shown)
VH: B1 VH
VL: B1 VL with I29V, H34A, T51A, F83V
notes: as for B1
B8: VH SEQ ID NO 522 / VL SEQ ID NO 486 (antibody, IgG4, V domains shown)
VH: B1 VH with D16Q, A23T, T30S, K45G, M70I, L89A, Y111P
VL: B1 VL with I29V, T51A, A84G
notes: as for B1
B9: VH SEQ ID NO 522 / VL SEQ ID NO 494 (antibody, IgG4, V domains shown)
VH: B1 VH with D16Q, A23T, T30S, K45G, M70I, L89A, Y111P
VL: B1 VL with I29V, T51A, F83V
notes: as for B1
B10: VH SEQ ID NO 514 / VL SEQ ID NO 486 (antibody, IgG4, V domains shown)
VH: B1 VH
VL: B1 VL with I29V, T51A, A84G
notes: as for B1
B11: VH SEQ ID NO 522 / VL SEQ ID NO 422 (antibody, IgG4, V domains shown)
VH: B1 VH with D16Q, A23T, T30S, K45G, M70I, L89A, Y111P
VL: B1 VL with I29V, H34A, T51A, N90Q
notes: as for B1
B12: VH SEQ ID NO 522 / VL SEQ ID NO 318 (antibody, IgG4, V domains shown)
VH: B1 VH with D16Q, A23T, T30S, K45G, M70I, L89A, Y111P
VL: B1 VL with Q42E
notes: as for B1
B13: VH SEQ ID NO 522 / VL SEQ ID NO 406 (antibody, IgG4, V domains shown)
VH: B1 VH with D16Q, A23T, T30S, K45G, M70I, L89A, Y111P
VL: B1 VL with I29V, H34A, T51A, Q100A
notes: as for B1
B14: VH SEQ ID NO 522 / VL SEQ ID NO 358 (antibody, IgG4, V domains shown)
VH: B1 VH with D16Q, A23T, T30S, K45G, M70I, L89A, Y111P
VL: B1 VL
notes: as for B1
B15: VH SEQ ID NO 514 / VL SEQ ID NO 382 (antibody, IgG4, V domains shown)
VH: B1 VH
VL: B1 VL with I29L, Q42E, T51A
notes: as for B1
B16: VH SEQ ID NO 522 / VL SEQ ID NO 470 (antibody, IgG4, V domains shown)
VH: B1 VH with D16Q, A23T, T30S, K45G, M70I, L89A, Y111P
VL: B1 VL with I29V, T51A
notes: as for B1
B17: VH SEQ ID NO 514 / VL SEQ ID NO 414 (antibody, IgG4, V domains shown)
VH: B1 VH
VL: B1 VL with I29V, H34A, T51A
notes: as for B1
B18: VH SEQ ID NO 514 / VL SEQ ID NO 422 (antibody, IgG4, V domains shown)
VH: B1 VH
VL: B1 VL with I29V, H34A, T51A, N90Q
notes: as for B1
B19: VH SEQ ID NO 522 / VL SEQ ID NO 366 (antibody, IgG4, V domains shown)
VH: B1 VH with D16Q, A23T, T30S, K45G, M70I, L89A, Y111P
VL: B1 VL with I29L, H34A, Q42E, T51A
notes: as for B1
B20: VH SEQ ID NO 522 / VL SEQ ID NO 438 (antibody, IgG4, V domains shown)
VH: B1 VH with D16Q, A23T, T30S, K45G, M70I, L89A, Y111P
VL: B1 VL with I29V, H34A, T51A, F83V
notes: as for B1
B21: VH SEQ ID NO 522 / VL SEQ ID NO 446 (antibody, IgG4, V domains shown)
VH: B1 VH with D16Q, A23T, T30S, K45G, M70I, L89A, Y111P
VL: B1 VL with I29V, H34A
notes: as for B1

Molecular target: T1, recombinant human activated Factor VII (FVIIa) (human, UniProt P08709 61-212; P08709 213-466, ten glutamate residues of the Gla domain may be gamma-carboxylated)
T1 construct: chains tethered by a disulfide bond; also called Factor VIIa; rFVIIa
T1 sequence 1: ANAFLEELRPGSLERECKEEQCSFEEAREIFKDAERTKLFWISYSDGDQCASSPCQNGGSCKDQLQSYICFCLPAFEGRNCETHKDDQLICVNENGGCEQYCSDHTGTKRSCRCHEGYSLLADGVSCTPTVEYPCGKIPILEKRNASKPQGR
T1 sequence 2: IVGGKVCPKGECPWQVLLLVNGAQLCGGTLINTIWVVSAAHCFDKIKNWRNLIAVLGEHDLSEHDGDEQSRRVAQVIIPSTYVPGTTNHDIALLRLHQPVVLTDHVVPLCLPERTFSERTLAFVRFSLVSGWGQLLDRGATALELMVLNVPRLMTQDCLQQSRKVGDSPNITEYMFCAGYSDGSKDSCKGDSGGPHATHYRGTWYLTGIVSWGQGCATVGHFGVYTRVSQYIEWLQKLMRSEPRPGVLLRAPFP
Assay: BLI (Fortebio)
Experimental: All steps were performed in running buffer (20 mM HEPES buffer (pH 7.4), 150 mM NaCl, 5 mM CaCl2, 0.03% Tween 20, 1 mg/ml IgG-free BSA) at […] Antibodies were captured on anti-human tips (AHC, Fortebio) for 3 min at a concentration of 10 ug/ml. This was followed by a 3 min incubation to establish a baseline. Following this, association was monitored for 3 min using four different concentrations of VIIa (25 nm, 50 nM, 100 nM, and 200 nM), followed by a 3 mi dissociation. Sensorgrams were analysed using Fortebio data analysis software.

Binder | Kd [nM]
B1 | 0.87
B2 | 1.4
B3 | 1.4
B4 | 1
B5 | 4.7
B6 | 12
B7 | 5.4
B8 | 1.5
B9 | 1.7
B10 | 0.95
B11 | 110
B12 | 0.97
B13 | 17
B14 | 1.3
B15 | 1.2
B16 | 0.96
B17 | 4.6
B18 | 68
B19 | 14
B20 | 57
B21 | 170
